{"source": "paper PMC5514391", "about": "(EBioMedicine, 2017)", "proteins": {"B1": {"name": "AdcR H42A/H108A (site 1 metal ligand mutant) (natural protein)", "chain": "MGTLEKKLDNLVNTILLKAENQHELLFGACQSDVKLTNTQEAILMLLSQQRLTNTDLAKALNISQAAVTKAIKSLVKQDMLAGTKDTVDARVTYFELTELAKPIASEATHHHDETLNVYNRLLQKFSAKELEIVDKFVTVFAEELEG"}, "B2": {"name": "AdcR C30A (site 2 metal ligand mutant) (natural protein)", "chain": "B1 chain with C30A, A42H, A108H"}}, "biological_target": "the molecule itself", "assay": "SEC", "note": "Residue numbers refer to the chain shown, from its start. Numbers in names are those of the source.", "data": [{"protein": "B1", "values": [{"measurement": "stoichiometry N", "value": 2}]}, {"protein": "B2", "values": [{"measurement": "stoichiometry N", "value": 2}]}]}
